In PMC8280134, “Broadly cross-reactive human antibodies that inhibit genogroup I and II noroviruses” (Nature Communications, 2021):

Columns and labels:
Assay in all cases: ELISA; indirect ELISA; VLP coated at 1 µg/mL on 384-well plates at 4 °C overnight, blocked with 5% nonfat dry milk in PBS with 0.05% Tween-20; mAb normalised for antigen-binding sites, from 500 nM with 11 serial dilutions; detection with anti-κ or -λ secondary antibodies
Settings in all cases: both partners purified
[1] = molecular target: T1, HuNoV GII.6 virus-like particle (Norwalk-like virus …, UniProt Q918A7, strain)
T1 construct: also called GII.6 VLP

[2] = molecular target: T2, HuNoV GII.17 virus-like particle (Norovirus …, strain)
T2 construct: also called GII.17 VLP
T2 chain: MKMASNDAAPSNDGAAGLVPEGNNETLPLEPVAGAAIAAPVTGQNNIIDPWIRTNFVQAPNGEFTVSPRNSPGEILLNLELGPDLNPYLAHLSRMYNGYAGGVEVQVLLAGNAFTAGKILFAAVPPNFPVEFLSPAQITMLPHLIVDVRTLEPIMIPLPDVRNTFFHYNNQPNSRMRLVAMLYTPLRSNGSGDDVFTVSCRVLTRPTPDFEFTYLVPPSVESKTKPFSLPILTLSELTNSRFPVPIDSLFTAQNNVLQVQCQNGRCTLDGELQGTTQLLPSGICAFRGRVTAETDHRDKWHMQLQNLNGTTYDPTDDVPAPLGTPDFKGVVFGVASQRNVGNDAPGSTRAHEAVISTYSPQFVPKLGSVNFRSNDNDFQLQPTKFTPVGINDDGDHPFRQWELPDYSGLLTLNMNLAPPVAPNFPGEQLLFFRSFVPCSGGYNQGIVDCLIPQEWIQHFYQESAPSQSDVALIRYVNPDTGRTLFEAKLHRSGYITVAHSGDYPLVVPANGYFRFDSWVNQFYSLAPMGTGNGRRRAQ

[3] = molecular target: T3, HuNoV GII.3 virus-like particle (Norovirus Hu/GII.3/TCH-104/USA/2002 …, UniProt S4VLU9, strain)
T3 construct: also called GII.3 VLP

[4] = molecular target: T4, HuNoV GII.13 virus-like particle (Norovirus Hu/GII.13/VA173/2010/USA, strain)
T4 construct: also called GII.13 VLP
T4 chain: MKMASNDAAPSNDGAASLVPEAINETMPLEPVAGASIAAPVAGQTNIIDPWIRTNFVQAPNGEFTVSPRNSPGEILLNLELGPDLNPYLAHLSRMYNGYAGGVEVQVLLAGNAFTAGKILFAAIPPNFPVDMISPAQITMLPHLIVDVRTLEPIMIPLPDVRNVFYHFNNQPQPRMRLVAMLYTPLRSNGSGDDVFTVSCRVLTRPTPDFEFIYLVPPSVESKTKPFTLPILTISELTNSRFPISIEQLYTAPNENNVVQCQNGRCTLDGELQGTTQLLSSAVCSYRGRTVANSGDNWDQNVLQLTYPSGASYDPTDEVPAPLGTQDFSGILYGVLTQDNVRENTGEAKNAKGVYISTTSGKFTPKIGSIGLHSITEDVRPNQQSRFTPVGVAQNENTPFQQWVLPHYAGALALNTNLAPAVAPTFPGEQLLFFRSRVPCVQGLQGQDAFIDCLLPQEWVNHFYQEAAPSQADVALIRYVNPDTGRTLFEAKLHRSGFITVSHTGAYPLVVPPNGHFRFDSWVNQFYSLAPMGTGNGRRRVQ

Measured: binding result

B1: NORO-320 IgA (hybridoma-secreted dimeric IgA) (antibody, V domains shown)
VH: QVQLVQSGPEVKKPGSSVKVSCKASGGTVSSYAISWVRQAPGQGLEWMGGIIPIFDTTNYAQKFQGRVTITADESTGTSDMELSSLRSEDTAVYYCARDRVPSYSPSRRFSTKGAMWGKYGMDVWGQGTLVTVSS
VL: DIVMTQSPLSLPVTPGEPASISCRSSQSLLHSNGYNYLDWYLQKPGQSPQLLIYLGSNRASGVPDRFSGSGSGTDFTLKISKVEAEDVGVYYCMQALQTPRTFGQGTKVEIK
notes: also called mAb NORO-320; Hyb dimeric IgA
binds: all assays above
